Entries after “also recorded” stand apart in the source; their conditions may differ.
Columns and labels:
[1] = tested on: RANTES secretion via the CD40-CD154 pathway; assay: RANTES cell assay (HPMC cells overlaid with mouse fibroblasts/CD154-mouse fibroblasts, ELISA RANTES test); assay type: cell-based, human; conditions: for level of cytokine RANTES secretion (summary statement): human peritoneal cells plus mouse fibroblasts expressing CD154 ligand; for dose response of inhibition of RANTES secretion (in words): FIG. 18G: CD154 ligand present, high cell number 10,000
Method: Skipping 5 protein was administered to a mixture of human peritoneal cells (HPMC cells), which express the CD40 receptor on their membrane, and mouse fibroblasts transfected to express the CD154 ligand. The ability of the soluble skipping 5 protein to compete with the CD40 membrane-bound receptor for binding to the CD154 ligand presented on the mouse fibroblasts was thus tested. This ability was measured by determining the resultant level of the cytokine RANTES, which is a cytokine indicative of T cell activation, as compared to when a positive control of interferon (which raises the level of RANTES via a CD40-related pathway) was administered alone.
HPMC cells were grown in M199+10% FCS (Biological Industries, Bet Ha'emek, Israel), trypsinized (using trypsine from Biological Industries, Bet Ha'emek, Israel, 5 ml/75 cm^2 cell culture flask), and recultured into 96-well plates. Cell should reach at least 80% confluence before further use.
Mouse fibroblasts/CD154-mouse fibroblasts were grown in DMEM+10% FCS (Biological Industries). Cells were trypsinized, pelleted (5 min 500 at rpm), counted (½ vol cells+½ vol trypan blue) and resuspended in M199+10% FCS. Cells were then diluted (10,000 or 5000 cells per ml).
CD40 proteins/antibodies were prepared in various concentrations in PBS according to the desired dose response/treatment (volume of 1 reaction should not exceed 20 microliters), followed by adding the same volume of PBS to the negative and positive controls.
The CD40 protein was added to 100 microliters of mouse fibroblasts or CD154-mouse fibroblasts in eppendorf tubes (final volume dependant on duplicates/triplicates) and incubated at R.T for 1 h at 200 rpm (rotation during incubation)
During this incubation time the HPMC were prepared, by removing medium and washing cells twice, and adding 100 microliters of fresh M199+10% FCS with or without 100 U/ml IFN (PeproTech, 50U/μl).
The CD40 L cells mixtures were overlaid on the HPMC (110 ul/well) and incubated O.N (at 37° C., 5% CO2).
100 microliters were removed from supernatant and placed into new 96 well plates, followed by diluting the samples 1/10 in M199+10% FCS and using diluted samples for the ELISA RANTES test.
The cells in the experiment plate were checked for viability.

human CD154 = biological target: T1, human CD154 (Homo sapiens, UniProt P29965); assay: FACS analysis of sCD40 binding to mouse fibroblasts expressing human CD154; conditions: Fc tagged proteins, 1-50 μg/ml, 4° C., 60 min; mouse fibroblasts stably transfected with full length human CD154
T1 construct: stably transfected with full length human CD154; expressed in transfected cells; host or cells: mouse fibroblasts, stably transfected
T1 sequence (P29965 1-261): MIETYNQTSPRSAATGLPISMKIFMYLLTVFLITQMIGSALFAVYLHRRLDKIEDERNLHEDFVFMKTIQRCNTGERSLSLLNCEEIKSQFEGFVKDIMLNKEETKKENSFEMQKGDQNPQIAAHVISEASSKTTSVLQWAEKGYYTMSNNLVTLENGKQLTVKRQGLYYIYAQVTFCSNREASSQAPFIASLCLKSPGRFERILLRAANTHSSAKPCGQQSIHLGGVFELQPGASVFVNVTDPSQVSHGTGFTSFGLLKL
Method: 10^6 mouse fibroblasts (stably transfected with full length human CD154) were incubated with either the known CD40 soluble variant, sCD40 WT (panel C, FIG. 17), the variant CD40-skipping 6 (panel A, FIG. 17) or the variant CD40-skipping 5 (panel B, FIG. 17). All CD40 variants were Fc tagged, and present at a concentration of 1-50 μg/ml at 4° C. for 60 min in total volume of 100 μl (0.5×10^6 cells). […] Analysis was performed using BD FACsCalibur. Panel E in FIG. 17 summarizes the mean fluorescence shift, as plotted versus various concentrations of CD40 protein.
Briefly, the FACS protocol was performed as follows. Mouse fibroblasts were trypsinized, and washed twice in PBS; cells were centrifuged at 1500 rpm for 10 min between washes. Next, the cells were re-suspended in FACS buffer (0.2% BSA and 0.02% sodium azide diluted 1/10 in PBS) to give 5-10×10^6 cells mL. Cells were placed in FACS test-tubes at a volume of 100 or 200 microliters per tube. […]
Next, 2 μL (1:50) anti CD40 non-blocking antibody (EA-5 mouse IgG1 PE-conjugated, obtained from Calbiochem) or controls (same isotype PE conjugated) were added to the tubes, and incubated for 30 min at 4° C. […] Next, 0.5 mL PBS was added to tubes, which were read in a FACS machine (BD FACSCalibur). […]
For this experiment, the controls included performing parallel assays with: mouse fibroblasts not expressing hCD154; non-relevant Fc (EA5, which is a mouse anti-CD40 antibody, see Malmborg Hager et al., Scandinavian J. 1 mm. 57:517-524 (2003) or non-Fc tagged proteins or purification mock; known CD40 soluble protein; secondary Ab only and isotype control only (isotype refers to an antibody control, featuring the same type of antibody but one which is not able to bind CD40). The axes are as follows: Y=cell counts; X=log scale of fluorescence intensity. M=A marker placed above the peak of positively stained cells on the histogram plot which provide the statistics of the stained population.

K562 cells [2] = assay: RT-PCR of CD40 splice forms in K562 cells treated with etoposide; assay type: cell-based; conditions: 20 μM Etoposide, various time intervals
Method: Samples of RT reactions of K562 treated with etoposide were prepared and used for PCR using CD40 primers (35 cycles). Etoposide (Sigma) is known as double-stranded DNA breakage and apoptosis inducing agent. The RT reactions were checked before the analysis to exclude possible genomic contamination and to ensure similar cDNA concentrations in the different samples, using quantitation with GAPDH (not shown).

K562 cells [3] = assay: Caspase activation in K562 cells (immunoblot with anti cleaved PARP antibody); assay type: cell-based; conditions: 25 μM etoposide, 17 hrs
Method: For this purpose K562 cells were treated with 25 μM etoposide for 17 hrs, and the activation of caspases, one of the hallmarks of apoptosis, was measured. To measure caspase activation, the cells were lysed, immunoblotted and PARP, a known substrate for caspase-3, was probed using anti cleaved PARP antibody (Cell Signaling, Beverly, Mass.).

[4] = FIG. 18C: HPMC cells plus mouse fibroblasts expressing CD154, with interferon
[5] = FIG. 18E: fixed concentration 200 nM sCD40 protein, varying number of CD154+ mouse fibroblasts
[6] = FIGS. 18A-C, complete system with INF and CD154 mouse fibroblasts

Molecule: known truncation product derived from known CD40: known CD40 extracellular domain without transmembrane domain, a simple truncation product of known CD40 [reference compound]
- level of cytokine RANTES secretion (summary statement) [1]: decreased level

Molecule: WT-sCD40-Fc: known CD40 extracellular domain (soluble, truncated) fused to Fc of IgG1 [reference compound]
- sCD40 binding to membrane CD154 (FACS) (human CD154): significant binding
- Rantes level [1, 4]: approximately 1000 pg/ml
- inhibition of Rantes level [1, 4]: 50%
- inhibition of RANTES secretion [1, 5]: 40-100%
- dose response of inhibition of RANTES secretion (in words) [1]: inhibitory effect
- effect on RANTES secretion (in words) [1, 6]: inhibitory properties

Molecule: COc1cc([C@@H]2c3cc4c(cc3[C@@H](O[C@@H]3O[C@@H]5CO[C@@H](C)O[C@H]5[C@H](O)[C@H]3O)[C@H]3COC(=O)[C@H]23)OCO4)cc(OC)c1O [Etoposide]
- expression levels of secreted CD40 splice variant skipping exon 5 (RT-PCR) (K562 cells [2]): increase
- known wild type CD40 expression levels (RT-PCR) (K562 cells [2]): decrease
- cleaved PARP (caspase activation) (K562 cells [3]): appearance of a band in the expected size

B1: Skipping 6-sCD40-Fc: Fc-tagged CD40 skipping exon 6 variant (protein)
chain: EPPTACREKQYLINSQCCSLCQPGQKLVSDCTEFTETECLPCGESEFLDTWNRETHCHQHKYCDPNLGLRVQQKGTSETDTICTCEEGWHCTSEACESCVLHRSCSPGFGVKQIATGVSDTICEPCPVGFFSNVSSAFEKCHPWTRSPGSAESPGGDPHHLRDPVCHPLGAGLYQKGGQEANQ
modifications: left off: a dimerising Fc or GST
notes: Fc-tagged CD40 skipping exon 6 variant
- sCD40 binding to membrane CD154 (FACS) (human CD154): significant binding
- dose response of inhibition of RANTES secretion (in words) [1]: inhibitory effect

B2: Skipping 5-sCD40-Fc: CD40 skipping exon 5 splice variant fused downstream to the Fc chain of Immunoglobulin IgG1, expressed in baculovirus (protein)
chain: EPPTACREKQYLINSQCCSLCQPGQKLVSDCTEFTETECLPCGESEFLDTWNRETHCHQHKYCDPNLGLRVQQKGTSETDTICTCEEGWHCTSEACESCVLHRSCSPGFGVKQIAVRPKTWLCNRQAQTRLMLSVVPRIG
modifications: left off: a dimerising Fc or GST
notes: CD40 skipping exon 5 splice variant fused downstream to the Fc chain of Immunoglobulin IgG1, expressed in baculovirus
- sCD40 binding to membrane CD154 (FACS) (human CD154): different properties
- effect on RANTES secretion (in words) [1, 5]: stimulatory effect
- effect on RANTES level in the absence of CD154 (in words) ([1]; FIGS. 18A and B: HPMC cells only or with untransfected mouse fibroblasts, Interferon dependent): agonistic effect; also recorded: agonistic properties
- effect on RANTES secretion (in words) [1, 6]: no inhibition

B3: Skip5: soluble CD40 splice variant lacking exon 5, SEQ ID NO:1, unique tail amino acids 136-160 (protein, listed as Homo sapiens)
chain: MVRLPLQCVLWGCLLTAVHPEPPTACREKQYLINSQCCSLCQPGQKLVSDCTEFTETECLPCGESEFLDTWNRETHCHQHKYCDPNLGLRVQQKGTSETDTICTCEEGWHCTSEACESCVLHRSCSPGFGVKQIAVRPKTWLCNRQAQTRLMLSVVPRIG
- dose response of inhibition of RANTES secretion (in words) [1]: did not cause any inhibition
- level of cytokine RANTES secretion (summary statement) ([1]; listed as CD40 skipping exon 5 variant): increased level
- level of cytokine RANTES secretion (summary statement) ([1]; listed as skipping 5): raise the level of secretion
